Laboratory results published in patent publication US20260201038A1 (CELLABMED, published 2026).

Key:
B7-1 = target: T1, B7-1 (UniProt P33681 35-242); test: indirect ELISA, B7-1 coated at 1 ug/mL, absorbance at 450 nm
T1 sequence (looked up): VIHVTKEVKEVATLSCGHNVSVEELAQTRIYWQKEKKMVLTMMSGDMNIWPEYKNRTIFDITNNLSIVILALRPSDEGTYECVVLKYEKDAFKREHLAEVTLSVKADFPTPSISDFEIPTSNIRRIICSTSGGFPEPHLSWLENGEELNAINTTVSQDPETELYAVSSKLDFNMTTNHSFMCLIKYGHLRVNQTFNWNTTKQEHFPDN
Procedure: [The procedure below names another target; the source lists this target under the same test.] The binding ability of 2D IgG prepared in Example 2 for recombinant B7-H3 protein was investigated by indirect ELISA. For indirect ELISA, recombinant human 4lg B7-H3, recombinant human 2lg B7-H3 and recombinant mouse B7-H3 were diluted respectively to 1 μg/mL in 50 μL of PBS and adsorbed overnight onto a 96-well immunoplate (Corning, USA) by storing at 4° C. After reaction with a buffer solution containing 3% bovine serum albumin at room temperature for 1 hour, followed by washing 3 times with a buffer solution containing 0.5% Tween 20, each well was treated with 50 μL of the antibodies diluted serially (0.0001, 0.0003, 0.001, 0.003, 0.01, 0.03, 0.1, 0.3, 1, 3 and 10 nM). For antigen-antibody binding, the mixture was reacted at room temperature for 2 hours, and then washed 3 times with a buffer solution containing 0.5% Tween 20. After treating each well with 50 μL of anti-human immunoglobulin Fc-HRP antibodies (Jackson Immunoresearch, USA) diluted to 1:3,000, reaction was conducted at room temperature for 1 hour. […] As a result of measuring absorbance at 450 nm using a spectrophotometer (Biotek, USA), it was confirmed that 2D IgG binds to B7-H3, and the binding ability was in the order of 4lg B7-H3, 2lg B7-H3 and mouse B7-H3 (FIG. 2a). […]

[1] = target: B7-H3 on human cancer cells (human) (UniProt Q5ZPR3); test: flow cytometry on A172 brain tumor cells; control (secondary antibody only) < 25%
[2] = target: B7-H3 on human cancer cells (human) (UniProt Q5ZPR3); test: flow cytometry on HepG2 liver cancer cells; control (secondary antibody only) < 10%
TPQRSPTGAVEVQVP = target: T2, TPQRSPTGAVEVQVP; test: peptide microarray, 15-mers of human 4Ig B7-H3; panel Ig-like-V type 2
T2 construct: 15-mer of human 4Ig B7-H3 on the peptide microarray, panel Ig-like-V type 2
T2 peptide: TPQRSPTGAVEVQVP
Procedure: (§1) It was confirmed that G2D IgG has linear epitopes since G2D was verified to recognize 4lg B7-H3 through western blot (FIG. 10a). Therefore, linear epitope mapping was conducted by Pepperprint GmbH (Germany). After preparing a peptide microarray from the 15 4lg B7-H3 amino acids with 14-amino acid overlaps, the antibodies binding to peptides were identified using secondary antibodies (FIG. 10b). As a result, it was confirmed that G2D IgG binds to a peptide having a sequence of EVQVP (FIG. 10c). EVQVP is located in the Ig-like V-type1 and Ig-like V-type2 domains of 4lg B7-H3 (FIGS. 10d and 10e). When the epitopes of the control antibody enoblituzumab were identified by the same method, it was confirmed that the epitopes include the sequence of GYPEAE (FIG. 10b), and GYPEAE is located in the Ig-like C2-type1 and Ig-like C2-type2 domains of 4lg B7-H3 (FIGS. 10d and 10e). As a result, it was confirmed that G2D IgG and the control antibody enoblituzumab have different epitopes.

PQRSPTGAVEVQVPE = target: T3, PQRSPTGAVEVQVPE; test: as above
T3 construct: 15-mer of human 4Ig B7-H3 on the peptide microarray, panel Ig-like-V type 2
T3 peptide: PQRSPTGAVEVQVPE
Procedure: as §1

QRSPTGAVEVQVPED = target: T4, QRSPTGAVEVQVPED; test: as above
T4 construct: 15-mer of human 4Ig B7-H3 on the peptide microarray, panel Ig-like-V type 2
T4 peptide: QRSPTGAVEVQVPED
Procedure: as §1

RSPTGAVEVQVPEDP = target: T5, RSPTGAVEVQVPEDP; test: as above
T5 construct: 15-mer of human 4Ig B7-H3 on the peptide microarray, panel Ig-like-V type 2
T5 peptide: RSPTGAVEVQVPEDP
Procedure: as §1

SPTGAVEVQVPEDPV = target: T6, SPTGAVEVQVPEDPV; test: as above
T6 construct: 15-mer of human 4Ig B7-H3 on the peptide microarray, panel Ig-like-V type 2
T6 peptide: SPTGAVEVQVPEDPV
Procedure: as §1

PTGAVEVQVPEDPVV = target: T7, PTGAVEVQVPEDPVV; test: as above
T7 construct: 15-mer of human 4Ig B7-H3 on the peptide microarray, panel Ig-like-V type 2
T7 peptide: PTGAVEVQVPEDPVV
Procedure: as §1

TGAVEVQVPEDPVVA = target: T8, TGAVEVQVPEDPVVA; test: as above
T8 construct: 15-mer of human 4Ig B7-H3 on the peptide microarray, panel Ig-like-V type 2
T8 peptide: TGAVEVQVPEDPVVA
Procedure: as §1

GAVEVQVPEDPVVAL = target: T9, GAVEVQVPEDPVVAL; test: as above
T9 construct: 15-mer of human 4Ig B7-H3 on the peptide microarray, panel Ig-like-V type 2
T9 peptide: GAVEVQVPEDPVVAL
Procedure: as §1

[3] = target: B7-H3 on human cancer cells (human) (UniProt Q5ZPR3); test: flow cytometry on SK-BR-3 breast cancer cells; control (secondary antibody only) < 5%
[4] = target: B7-H3 on human cancer cells (human) (UniProt Q5ZPR3); test: flow cytometry on HT29 colorectal cancer cells; control (secondary antibody only) < 15%
[5] = target: B7-H3 on human cancer cells (human) (UniProt Q5ZPR3); test: flow cytometry on MDA-MB-231 breast cancer cells; control (secondary antibody only) < 5%
[6] = target: B7-H3 on human cancer cells (human) (UniProt Q5ZPR3); test: flow cytometry on HCT116 colorectal cancer cells; control (secondary antibody only) < 25%

binding result (B7-1): no binding (tested: 10 nM) | % of cells in the positive gate [1]: > 95% | % of cells in the positive gate [2]: > 95% | fluorescence intensity of the peptide spot (TPQRSPTGAVEVQVP): 89.3 | fluorescence intensity of the peptide spot (PQRSPTGAVEVQVPE): 92.3 | fluorescence intensity of the peptide spot (QRSPTGAVEVQVPED): 80 | fluorescence intensity of the peptide spot (RSPTGAVEVQVPEDP): 120 | fluorescence intensity of the peptide spot (SPTGAVEVQVPEDPV): 94.8 | fluorescence intensity of the peptide spot (PTGAVEVQVPEDPVV): 142 | fluorescence intensity of the peptide spot (TGAVEVQVPEDPVVA): 84.5 | fluorescence intensity of the peptide spot (GAVEVQVPEDPVVAL): 95 | % of cells in the positive gate [3]: > 35% | % of cells in the positive gate [4]: > 95% | % of cells in the positive gate [5]: > 95% | % of cells in the positive gate [6]: > 95%
B1: G2D IgG (antibody, V domains shown)
VH: QVQLVESGGGLVQPGGSLRLSCSASGFDFSSYPMVWVRQAPGKGLEYVSSINSGGSWTGYGAAVKGRATISRDNSKNTLYLQMNSLRAEDTATYYCARAYGAATIDAWGQGTTVTVSS
VL: SYELTQPPSVSVSPGQTARITCSGGSIGYGWYQQKAPGQAPVTVIYYNDRRPSGIPERFSGSKSGTTNTLTISGVQAEDEADYYCGSADSSSTYTGIFGGGTKLTVL
notes: The back-substitutions (L46T, S66K, V71N in VL); also called humanized 2D; G2D antibody
